# Results as given in patent publication US20190160148A1, “COMBINATION OF PEMBROLIZUMAB AND ABEMACICLIB FOR THE TREATMENT OF CANCER” (Eli Lilly and Company, priority 2016, published 2019).
# What was measured:
# CT26 syngeneic tumors = assay: CT26 syngeneic tumor growth, concurrent dosing; assay type: in vivo, Balb/C mice; conditions: day 24; abemaciclib 50 mg/kg for 21 days; 178G7 500 μg/dose 1 time per week, 3 doses; versus vehicle
# From the text: CT26 is also a well-known model for immunotherapy. Studies have shown it to be sensitive to inhibitors of a co-inhibitory immune checkpoint including, CTLA-4, PD-1, PD-L1 blockade. Established sensitivity of CT26, and well known range of therapeutic efficacy of immunotherapeutic intervention make it an appropriate model for screening the activity of checkpoint immunotherapies (Grosso and Jure-Kunkel, Cancer Immunity Vol. 13, p. 5, January 2013) (Duraiswamy et al, Cancer Research, Jun. 15, 2013 73; 3591).
# CT26 is a murine model, and accordingly, antibodies used in the CT26 model must bind the mouse target protein. […]
# Relative changes in tumor volume compared to control are analyzed at day 24, at the point where the most animals remained in all groups for proper statistical comparison. Relative changes in tumor volume (% ΔT/C) are calculated using the formula % ΔT/C=100×ΔT/ΔC, whereby T=mean tumor volume of the compound treated group, ΔT=mean tumor volume of the compound treated group minus the mean tumor volume on the baseline day, C=mean tumor volume of the control (vehicle) group, and ΔC=mean tumor volume of the control group minus the mean tumor volume on the baseline day. […]
# PD-L1/PD-1 interaction = PD-L1/PD-1 interaction (Mus musculus, UniProt Q9EP73); assay: Blockade of PD-1 binding to PD-L1; conditions: anti-murine PD-L1 clone
# Chain of PD-L1/PD-1 interaction (Q9EP73 19-290): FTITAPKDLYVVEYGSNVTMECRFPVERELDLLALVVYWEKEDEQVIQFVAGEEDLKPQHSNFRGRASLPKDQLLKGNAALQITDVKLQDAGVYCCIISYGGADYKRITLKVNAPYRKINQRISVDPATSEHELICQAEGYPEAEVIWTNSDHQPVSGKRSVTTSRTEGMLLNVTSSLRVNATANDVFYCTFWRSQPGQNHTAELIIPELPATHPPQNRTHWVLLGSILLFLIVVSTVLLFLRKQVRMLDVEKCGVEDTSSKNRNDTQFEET
# From the text: CT26 is a murine model, and accordingly, antibodies used in the CT26 model must bind the mouse target protein. To model co-inhibitory immune checkpoint therapy, in particular blockade of PD-L1/PD-1 mediated inhibition, anti-murine PD-L1 clone, 178G7 (Known herein in the examples as: anti-PD-L1 antibody or anti-PD-L1 therapy or anti-PD-L1), is produced. The HC of 178G7 is SEQ ID NO: 11, and the LC of 178G7 is SEQ ID NO: 12. […] In particular, 178G7 is used as a a surrogate agents that prevent PD-1 mediated inhibition by PD-L1. as both 178G7 and pembrolizumab block the interaction of PD-1 and PD-L1. 178G7 competes with previously identified surrogate antibody 10F.9G2 known to block PD-L1/PD-1 interaction and is a known surrogate for anti-human antibodies in the clinic (Eppihimer et al. Microcirculation 2002:9(2):133).
blocking of PD-1 binding to PD-L1 (PD-L1/PD-1 interaction),Molecule,%T/C (relative change in tumor volume compared to control) (CT26 syngeneic tumors)
,"CCN1CCN(Cc2ccc(Nc3ncc(F)c(-c4cc(F)c5nc(C)n(C(C)C)c5c4)n3)nc2)CC1 [abemaciclib, [5-(4-ethyl-piperazin-1-ylmethyl)-pyridin-2-yl]-[5-fluoro-4-(7-fluoro-3-isopropyl-2-methyl-3H-benzoimidazol-5-yl)-pyrimidin-2-yl]-amine]",22.3%
blocks PD-1 binding to PD-L1,"Anti-PD-L1 antibody: anti-murine PD-L1 clone 178G7, HC SEQ ID NO: 11, LC SEQ ID NO: 12; surrogate that blocks PD-1/PD-L1 interaction (antibody) heavy: QVQLQQSGADLAKPGSSVKISCKASGYNFNSYYINWIKQTTGQGLEYIGYINTVSGTTKYSEKFKGKATLTVDKSSSTAFMQLSSLTPDDSAVYYCARGTIVLDDYWGQGVKVTVSSAETTAPSVYPLAPGTALKSNSMVTLGCLVKGYFPEPVTVTWNSGALSSGVHTFPAVLQSGLYTLTSSVTVPSSTWPSQTVTCNVAHPASSTKVDKKIVPRNCGGDCKPCICTGSEVSSVFIFPSKPKDVLTITLTPKVTCVVVDISQDDPEVHFSWFVDDVEVHTAQTRPPEEQFNSTFRSVSELPILHQDWLNGRTFRCKVTSAAFPSPIEKTISKPEGRTQVPHVYTMSPTKEEMTQNEVSITCMVKGFYPPDIYVEWQMNGQPQENYKNTPPTMDTDGSYFLYSKLNVKKEKWQQGNTFTCSVLHEGLHNHHTEKSLSHSPGK light: DIVMTQTPSSQAVSAGEKVTMSCKSSQSLLYNEKKKNYLAWYQQKPGQSPKLLIYWASTRESGVPDRFLGSGSGTDFTLTINSVQAEDLAVYYCQQSYDFPRTFGGGTKLELKRADAAPTVSIFPPSTEQLATGGASVVCLMNNFYPRDISVKWKIDGTERRDGVLDSVTDQDSKDSTYSMSSTLSLTKADYESHNLYTCEVVHKTSSSPVVKSFNRNEC",56.1%
